The values that follow come from the DeepSol protein solubility set.

The nature of the data set: soluble on expression in E. coli; label from the status in PepcDB or PDB records.
For “KNVLILGAGGQIARHVINQLADKQTIKQTLFARQPAKIHKPYPTNSKIIMGDVLNHAALKQAMQGQDVVYANLTGEDLDIQANSVIAAMKACDVKRLIFVLSLGIYNEVPGKFGEWNNAVIGEPLKPFRRAADAIEASGLEYTILRPAWLTDEDIIDYELTSRNEPFKGTIVSRKSVAALITDIINKPEKHIGENIGINQPGTDG”, the “soluble on expression in E. coli” value is “not soluble”.
Regarding “GPGSMAKSSRSKWKKMHRRQRAQAEATNTVKRICLLNKKLKLTVKGGISAVPPQEPEKRFHFLNPVLDSRVPNTRKNLNNNYRAELNHVEYDYTKPLKLAPPKTNMYGKTDVDAPHPMTVMYETIDADTPLAGHALTKADMERLARRQAQQESEASAAVADAEKDASKEDGDNADDGPEEYVFGMEDAAPRRARGQHKTSAKKKGSVAPKALKGAASASVGASSSVSETGSSSRMLAAAAAAMTNEEEEADHRTRNGGVTAVNKIASMQTMRKKNGTMVSAGGASKMKKVGQLGGSSGTRVVSSGGKVARKDVGNAKSGSKR”, the “soluble on expression in E. coli” value is “soluble”.
For “MQIIRRLMFVVALICPLITQAEPQVAKLYQRELTRNSYAIGGLNAPVALFAAQVHQESQWNVTALSHVGAQGLAQFMPQTANWIATQYPELKTNQPFNPSWALRALVRYDYWLYQRIHAVTDCDRWAFALSAYNGGLGWVQRDKRKARIQGLDPMSYWHAVESVNSGRSRANFIENRGYPKRIIYRWQPLYLHWGNSVCLDD” the value was “not soluble”; for “MSIKQWPEGERPREKLLERGAAALSDAELLAILLRVGTRGMSAVDLARYLLQEFGSLGRLMSAEVGKLSAYKGMGTASFTQFAVVREIGRRILAEELQESIVLSDPDTVADYLRFHLGQEKVEVSVALLLNRQNQLIAVRELSRGTVAENTIYIREIVKLALDEYADSLIIAHNHPGGSPEPSQEDIMFTRRLAQAMSLVDVSLLDHFIVTSQSVCSFRQLGLMP”, “not soluble”; for “MKVDGIQAEMRAMMVEATNTTPTGTGAKVGADFNDLLTKAINNVNSLQKSSGDLQTRFDRGDADVSLSDVMIARNKSSVAFEATVQIRNKLVEAYKDLMNMPV”, “not soluble”.
Under “MLFDMLHSFHESRVIKSHHNLTQQPVSTFLLMGLDNSGKRKLSTTRTDGMMVVIVNHKTKTMTLCSLLRDTFVKIHSQQYHGYQRIESAYTYGGDAAAIATVEHYLNLPIDYYLTVNWDGFIRAIDDIGPVEVNVDRDFIGQDYWGKPEKFKAGLQSMSGARALAYARERHIDNDQHRGFRQQAVFYAMVKRLNQEGLSSKGAKVVGDLKDQMRTNLTNHDMLTLFKSRKTFKRYRVKRLTFQWRTFDVAGRSMVEVYPDSRVQVSRQLQAAAGLRPDLPSQTFTTNGHYRYASDESVESKADEAKADTHYGQSHVYVGHAGNTTIGKLPAAVPLKNGFRVSDRTETMYTVHLEHHHHHH” stands “soluble”; under “MGSDKIHHHHHHMIGRKRKYEDPHIRSFHELLSGHNPVLYKKEDLLAYDCDGFTIHKHLPKAVVFPENTREVASIVRYCHDHNLPFLARGAGTGLSGGAIPINGEVIISLVRMKRLLEVDLKNRRAIVEPGYVNLKLTQSIEDKGYYYAPDPSSQYCCTIGGNVAENAGGAHCLKYGVTTNHILGMEVVLPNGDIVEIGKAGILDEPGYDLLGLMTGSEGTLGIVTKITVRILKHPEAKQTVLAYFDKVSDASHTVSDIISEGIVPAALEMMDRIAMEGVEAAAFPIGHLLDAEAVLLIEVDGISAGMDQQIERILTVCRKHHVREVKDEMVGEPKNRLWCHGCHLTRLPRTRWSDPADKASGRAFNDSKNQRNIRATNRKYFSRR”, “not soluble”; under “MGSDKIHHHHHHMAELQEVQITEEKPLLPGQTPETAKEAELAARILLDQGQTHSVETPYGSVTFTVYGTPKPKRPAIFTYHDVGLNYKSCFQPLFRFGDMQEIIQNFVRVHVDAPGMEEGAPVFPLGYQYPSLDQLADMIPCILQYLNFSTIIGVGVGAGAYILSRYALNHPDTVEGLVLINIDPNAKGWMDWAAHKLTGLTSSIPDMILGHLFSQEELSGNSELIQKYRGIIQHAPNLENIELYWNSYNNRRDLNFERGGETTLKCPVMLVVGDQAPHEDAVVECNSKLDPTQTSFLKMADSGGQPQLTQPGKLTEAFKYFLQG”, “not soluble”.
For “MTATPEVQKSIEEVYTKLQGASDCSSLLKKHLTKDVVAKNKSKKTRLGATLLDVIQSGGENLDSGVGIYAPDAESYTLFADLFNPVIEEYHNGFKATDTQPAMDLGEKNVGELADLDPEGKFIVSTRIRCGRSLQGYPFNPCLSETNYKMMETRMKEIFNSITDPELKGTYYPLTGMDEETKKKLIADHFLFKEGDRFLKAANANRYWPNGRGIFHNEKKTFLVWVNEEDHLRIISMQNGGNVGEVLARLIKGLNLVAAKAPFARHPRLGWLTFCPTNLGTTVRASVHIKLPKISAKDDFKKICSDMKLQIRGIHGEHSESKEGIYDISNKQRLGLTEYQAVRQMYDGLKKLIELEKAAA”, the “soluble on expression in E. coli” value is listed as “not soluble”.
Under “MSLTTNRTRKAGADSEISDLLKTQSELHGRIAAMAETLGTRQTEMSQTLNQRLDGMSQRLGETLTEQTRSTHENLSRLQERLAVIDAAQGNIQDLAKDVVGLQAILSNKQTRGAFGQARMETLIADALPAGAFQLQPTLSNGYRPDCIIKMPNNAPALVIDAKFPLEAWNAIKADETPETKRAAVQQFRRDMEVHIRDVAEKYLIRGETQDTAFIFVPSESIFADIHQHFEYLVQRAHRARVVIVSPSLLMLSVQVIQSVLKDQRMREQAHLIQGEVALLMDDVRRLDDRTRKLQAHFGLAQKDVDMMLISSDKVLARGQKIEGLDFSPTEKEASHGEIEQTRRFAENRAGAAKLRVVDDEEGHHHHHH” stands “soluble”; under “MSKEIAKKRIEELRDLLNTFNYQYHVLDNPSVSDAEYDRNMQELIKLEAENPEFMSEDSPSIRVGGTVLDIFEKVTHKSPMLSLGNAFNEGDLRDFDRRVRQGIDDANVRYICELKIDGLAVSLHYEKGRFIQGATRGDGVTGEDITQNLKTIKAIPLRLNEEVTLEARGEAYMPKRSFVKLNEEKEQNGEDVFANPRNAAAGSIRQLDPKIAAKRNLSMFVYGLANVEEKTIPSHSESLDYLGELGFKTNPNRRTCETIEEVIAYVEEWQEKRPHLDYEIDGIVIKVDDVALQESLGTTAKSPRWAIAYKFPAEEVVTRLTGIELSVGRTGVVTPTAELEPVRVAGTIVRRASLHNEDLIREKDIRIGDYVVVKKAGDIIPEVVNVIFDKRTGGEEEYHMPTHCPACESELVRLEEEVALRCINPTCPAQIREGLIHFVSRNAMNIDGLGERVITQLFDADYIRTFADLYSLTKEQLLQLERFGEKSATNLVQAIENSKENSLERLLFGLGIRHVGAKAARTFAEHFETMDALVKATEEELKAINEIGEKMAQSVVAYFDNEDVLELLQQFKEYGVNMTYKGIKIADLQNVESYFAGKTVVLTGKLEVMGRSEAKKKIEALGGKVTGSVSKSTDLVVAGEAAGSKLAQAEKHNVEVWNEERFLQELNK”, “soluble”; under “MALFSPYALGATLYMPATRDDIVDVVFGEKIPELRSLVVCLEDAVALIDVDTALLNLRQVLTRIHDRGGRPANGPLLFVRPRDAAMARILNDWPLMAHVDGFVVPKLSLKSLTSWEEAVTNPALALMPTLETPEVFNPTAMVELGQALKASLHERIIALRIGGNDLMGCLGLRRNPAMTLYSTPMGYVIPMLAGVMGAQGFALTAPVFEQLATPDILEQELALDITNGLVGKTAIHPSQVNIIQNALRVSLEDMNSARMILNSVAPAVFKYNDAMCEPATHYKWATHIMERAKWHGVLPTPASIMDASIRLAEAVSLEHHHHHH”, “soluble”.
For “MSLADNRDELKETLRTLLRDNPDLVLEVLREHSETVLEIAQQGANQRRRKVLVAQWKTDLEDPKKVNLADRPVRGEANAPVTVVAYSDFTCPYCQQAAGTVEMLLANYKGKVRYVFKQMPLETHENARTASNYYVAASLQDPAKAWKLYEAVFADRDRLVTEGEPFLKKVAQEAGLDMQRLATDIKGRKVKALIEEDMAEARKLGVQGTPYFLVNDLVVRGALPLDLFSDAVDMALEKAGAKEGHHHHHH”, the “soluble on expression in E. coli” value was “soluble”.
Under “MPRSLANAPIMILNGPNLNLLGQRQPEIYGSDTLADVEALCVKAAAAHGGTVDFRQSNHEGELVDWIHEARLNHCGIVINPAAYSHTSVAILDALNTCDGLPVVEVHISNIHQREPFRHHSYVSQRADGVVAGCGVQGYVFGVERIAALAGAGSARA” stands “soluble”; under “MTKCSIIIGIFLIAAINGQASKRRIQYESVSQFLFHNSKLCGDPFSDAVWLPVLDLCSIECEITSEYCVENEELTQQCKKLPEDCQALLRKAIKQIQRHIRSQKPVYL”, “not soluble”.
